Test: soluble on expression in E. coli; label from the status in PepcDB or PDB records
For “MQEEVNEKTVSLCITGGKVTARLLKQAMMRFLAAMEKEKAEKARKQQVKGPPDKDYHGKQSLKKLAQQNVQLSNIEITDNNIKAFEKVAKKYGIDFSLKRDKSVDPPRYFVFFKARDVDVMTAAFREFTGKTLNKTKKPSVRKKLQQAIAARSQDKQREREKSKEKQKEPTL”, the “soluble on expression in E. coli” value was “not soluble”. With “MGSDKIHHHHHHMSRQKFVNRERELAFLEERYASGDAELLIIYGRRRIGKTELLLHFARNKEHVYFLASEKPYRDNLRELQRMMGDFLGDRLFSRIEFSDIDELLIEFSKRVRGRRVVLIIDEFPYLIEHYKPVLSLIQRAWDMELSKSDLLLILCGSSVSSMETEVLGYKSPLYGRRTGQWMVDELPFWSLREFFPSYSTEDIVKVYGVLGGIPAYLLQFDPEKSFDENVVEKVLSKGAFLYEEAEILLKEEMREPANYFIILQAIASGRSRFGEIVNATGLDKSLVSKYLNVLEKLRIVEREVPVTASRKEALKRGKYSITDNYLAFWFRYVLPNKSYLETGLGKEIWERSKEDFKEYMGGVFERLLRKPEVFTKLTNFRFTKIGRWWHKGEEIDLVALNEREKKALFIEVKWKDLSEREARGILKDLKRKVKLVGLDEWGKHYGLVAKNVKGKDKIKEEGWLAWDLEDFERLGVSG” the “soluble on expression in E. coli” value was “not soluble”. For “MRQIQSIRLIDVLELAFGVGYKEETTSQFSSDQPSQVVLYRGEANTVRFAYTNQMSLMKDIRIALDGSDKSLTAQIVPGMGHVYEGFQTSARGIFTMSGVPESTVPVANPNVQTKYIRYFKVIDDMHNTMYKGTVFLVQPQAWKYTMKSVDQLPVDDLNHIGVAGIERMTTLIKNAGALLTTGGSGAFPDNIKVSINPKGRQATITYGDGSTDIIPPAVLWKKGSVKEPTEADQSVGTPTPGIPGKFKRDQSLNEHEAMVNVEPLSHVVKDNIKVIDEKSTGRFEPFRPNEDEKEKPASDVKVRPAEVGSWLEPATALPSVEMSAEDRLKS”, the “soluble on expression in E. coli” value was “not soluble”. With “MGSDKIHHHHHHMTIYSWNALYLGNAGDIDSYEGDLYAEGASNILGSYGSPGDPLYDHIVDVVVNDADDDTDINSDNYDFWSPDAMTVDGVAHTLDSGVVYNATLTYADGSTANITAVVIQTTDGDLYLAPEMTANDDWVAMEAKAIVSVSLDSVSVDTTYIAANRQQTNFICFAAGTRIATPKGARPVETLAVGDLVQTLDHGPQPIRWIGTRRVGLATQLLSHGVAPVVIPAHSFAPSIPTHPLLLSQQHRVLLRSRIARRMYGSDEILIAARRLTGLHGIALRPATGPVRYIHFALDRHEIVFANGLPAETLLLGAEVERVLGTDVFTQIEQSQNRGAIALAMRPARPIVEGRRARSFVERLRNRACRHALANPIKVPQNRVTGLISLVSPPG” the “soluble on expression in E. coli” value was “not soluble”. With “MSAEASGPAAAAAPSLEAPKPSGLEPGPAAYGLKPLTPNSKYVKLNVGGSLHYTTLRTLTGQDTMLKAMFSGRVEVLTDAGGWVLIDRSGRHFGTILNYLRDGSVPLPESTRELGELLGEARYYLVQGLIEDCQLALQQKRETLSPLCLIPMVTSPREEQQLLASTSKPVVKLLHNRSNNKYSYTSTSDDNLLKNIELFDKLALRFHGRLLFLKDVLGDEICCWSFYGQGRKIAEVCCTSIVYATEKKQTKVEFPEARIFEETLNILIYETPRGPDPALLEATGGAAGAGGAGRGEDEENREHRVRRIHVRRHITHDERPHGQQIVFKDLEHHHHHH” the “soluble on expression in E. coli” value was “not soluble”. In the case of “MLQINQMFSVQLSLGEQTWESEGSSIKKAQQAVANKALTESTLPKPVQKPPKSNVNNNPGSITPTVELNGLAMKRGEPAIYRPLDPKPFPNYRANYNFRGMYNQRYHCPVPKIFYVQLTVGNNEFFGEGKTRQAARHNAAMKALQALQNEPIPERSPQNGESGKDMDDDKDANKSEISLVFEIALKRNMPVSFEVIKESGPPHMKSFVTRVSVGEFSAEGEGNSKKLSKKRAATTVLQELKKLPPLPVVEKPKLFFKKRPKTIVKAGPEYGQGMNPISRLAQIQQAKKEKEPDYVLLSERGMPRRREFVMQVKVGNEVATGTGPNKKIAKKNAAEAMLLQLGYKASTNLQDQLEKTGENKGWSGPKPGFPEPTNNTPKGILHLSPDVYQEMEASRHKVISGTTLGYLSPKDMNQPSSSFFSISPTSNSSATIARELLMNGTSSTAEAIGLKGSSPTPPCSPVQPSKQLEYLARIQGFQAALSALKQFSEQGLDPIDGAMNIEKGSLEKQAKHLREKADNNQAPPGSIAQDCKKSNSAV”, the “soluble on expression in E. coli” value was “soluble”. With “MAVIKQDDLIQSVADALQFISYYHPVDFIQAMHEAYLREESPAARDSMAQILINSRMCATGHRPICQDTGIVTVFVRVGMDVRWDGATMSVDDMINEGVRRAYNLPENVLRASILADPAGARKNTKDNTPAVIHYSIVPGDKVEVDVAAKGGGSENKSKMAMLNPSDSIVDWVLKTVPTMGAGWCPPGMLGIGIGGTAEKAAVMAKEVLMDPIDIHELKARGPQNRIEELRLELFEKVNQLGIGAQGLGGLTTVLDVKIMDYPTHAASLPVCMIPNCAATRHAHFVLDGSGPAELEAPSLDAYPEIVWEAGPSARRVDLDKITPEEVQSWKPGETLLLNGKMLTGRDAAHKRMVDMLNKGETLPVDLKGRFIYYVGPVDPVGDEVVGPAGPTTATRMDKFTRQILEQTGLLGMIGKSERGPIAIEAIKDNKAVYLMAVGGAAYLVAQAIKKSKVLAFAELGMEAIYEFEVKDMPVTVAVDTNGESVHITGPAVWQ” the “soluble on expression in E. coli” value was “not soluble”. For “MAHHHHHHMSLNLAEAADERSQREMEKYLVERVAGQGTFGTVQLAREKNTGVNVAIKKVIQDPRFKNRELQIMQDLSRLRHPNIVLLKNYFYTVLGDHRHNDVYLNVVMEFVPDTLHRVCRAYYRRLASPPMILVKVFMYQLLRGIACLHLPAVNVCHRDIKPHNVLVDESTGDLKLCDFGSAKKLSPSEPNVAYICSRYYRAPELIFGNQYYSTAVDVWSVGCIFAEMLLGEPIFCGENTSGQLREIVRVLGRPSREELHKLSTSNVELNVPTNKSTPWEDVFKRPLPAEVYDLCAKIFKYLPEQRITPLEAICHPFFDELHDATVKLPSGNALPAHLFTFLPEEINEMTEAQRSQLVQK”, the “soluble on expression in E. coli” value was “soluble”. For “MSSLRRKWISDPAFKVFKKVLPPLSSTEKEAMEAGSVWWDAELFSGKPNFTTLHHYPAPTLTAEEQAFMDNELETLLDMLDDQKIVKEDRDLPPEVWEYLRKERFFSLIISKEYGGREFSALANSTIVSRIATRSISVAVSVMVPNSLGPGELLSHYGTQEQKDYWLPRLADGTDIPCFALTGPEAGSDAGGIPDQGVVCYGMYDGEEVLGVRVSWNKR”, the “soluble on expression in E. coli” value was “not soluble”. With “SGDRSMVEVLADHPGELVRTDSPNFLSSVLPTHWRSNKTLPIAFKVVALGDVPDGTLVTVMAGNDENYSAELRNATAAMKNQVARFNDLRFVGRSGRGKSFTLTITVFTNPPQVATYHRAIKITVDGPREPRRHRQKLDD” the “soluble on expression in E. coli” value was “soluble”. In the case of “MSLKKYTMNEMVDITKDMLNKRGVMIEDIARIVQKLQEKYNPNLPLSVCMENVEKVLNKREIIHAVLTGLALDQLAEQKLLPEPLQHLVETDEPLYGIDEIIPLSIVNVYGSIGLTNFGYLDKEKIGIIKELDESPDGIHTFLDDIVAALAAAAASRIAHTHQDLQDEEKEQDEKPVVSEGGSHHHHHH”, the “soluble on expression in E. coli” value was “soluble”. In the case of “MAELLLGVNIDHIATLRNARGTDYPDPVQAAFIAEQAGADGITVHLREDRRHITDRDVRILRQTLHTRMNLEMAVTEEMLAIAVETRPHFCCLVPEKRQEVTTEGGLDVAGQRDKMRDACARLAAAGIQVSLFIDADETQINAAAEVGAPFIEIHTGCYANAETDAEQAKELARIASAATLAARLGLKVNAGHGLTYHNVKAIAALPEMHELNIGHAIIGRAVMTGLKEAVAEMKRLMLEARG”, the “soluble on expression in E. coli” value was “not soluble”. With “MADNSDANGVPYYFLINMGGGFVEGEQYQVTIDVNKDAHALVTTQTPTYVYKCEKGQLTQQNTSITLEENSYLEYMADEVIPYLKSRYFQTSRIDMDKSAHLIYSDGVTAGWSHEDLPFQYHYFRNLTQIYQDNELVYSDQTLLEPEKQDMFKLGYFEGWRNYNSLVMVSPNIDEAFVKALQKHLEGLNLESDFAISSLDISGLVLRILGKTAEDNRRIIYSCADYFRQEIHGLTPLNLRKNDMRRLEHHHHHH” the “soluble on expression in E. coli” value was “not soluble”. In the case of “MGSDKIHHHHHHMQIYLANPRGFCAGVDRAIAIVNEALLRFEPPIYVRHEVVHNKFVVSDLANRGAVFVEELHEVPDGSIVIFSAHGVSKAVEDEAERRDLTVFDATCPLVTKVHIEVAKFAQDGMDAVLIGHAGHPEVEGTMGRFNHRHGGRIHLVENESDVEALSVQDAERLAFVTQTTLSMDDTARVIDALREKFPHIQGPRKDDICYATQNRQDAVKHLASRCEVVLVVGSPNSSNSNRLRELAERMNCRAYLIDNATEMDINWFDGIQSVGVTAGASAPEVLIQEVLQQLQDWGGDLPSELSGIEENVTFSLPKALRIPMTQVGK”, the “soluble on expression in E. coli” value was “not soluble”. In the case of “SEVLRPQLIRIDGRNYRKNPVQEQTYQHEEDEEDFYQGSMECADEPCDAYEVEQTPQGFRSTLRAPSLLYKHIVGKRGDTRKKIEMETKTSISIPKPGQDGEIVITGQHRNGVISARTRIDVLLDTFRRKQPFTHFLAFFLNEVEVQEGFLRFQEEVLAKCSMDHGVDSSIFQNPKKLHLTIGMLVLLSEEEIQQTCEMLQQCKEEFINDISGGKPLEVEMAGIEYMNDDPGMVDVLYAKVHMKDGSNRLQELVDRVLERFQASGLIVKEWNSVKLHATVMNTLFRKDPNAEGRYNLYTAEGKYIFKERESFDGRNILKLFENFYFGSLKLNSIHISQRFTVDSFGNYASCGQIDFS”, the “soluble on expression in E. coli” value was “soluble”. In the case of “MKDPKAPIGVFDSGVGGLTVLKALRRLLPREEFLYFGDTARVPYGGKPLAMVRRFAWEIAGFLLRQGVKAIVVACNTASSAALPDLAEDLSVPVFGVVEPVARAVRGFRKVGLIGTQATVESGAYPRYVDLACAKACPLFVPLVEEGLWDDPVALLVARHYLEDAPKDLEALILGCTHYPFLKGAIGAVLPGVALLDSAELTAQEVARALEAEGLLNPEGRGRTFHLVTGDPEAYRALAERLGERVEAVRRVSLEEL”, the “soluble on expression in E. coli” value was “soluble”. With “MHEYYYIYWYLSEFLYAWLMSTLSRADGSQMAEERIMEEQQKGRSSKKTKKKKKVRPLSREITMSQAYQNMCAGMFKTMVAFDMDGKVRKPKFELDSEQVRYEHRFAPFNSVMTPPPVHYLQFKEMSDLNKYSPPPQSPELYVAASKHFQQAKMILENIPNPDHEVNRILKVAKPNFVVMKLLAGGHKKESKVPPEFDFSAHKYFPVVKLVLEHHHHHH” the “soluble on expression in E. coli” value was “not soluble”. For “MSLKITTEQVCEALDTWVCRPGMTQEQATILITEAFWALKERPNIDVQRVTFNDGEVDQRALGVNRVKIFERWKAIDTRDKRDKFTALIPAIMEAIRISDFRLYCEITDGKSITYMIAGLNKEYGDVVESGLLFADPVVVERETDELIEKAIAFKHAYRQQYQYYFADKQMSARGAYEYRCTTMGEGHHHHHH”, the “soluble on expression in E. coli” value was “soluble”. For “MEDIIFGKRSNVFDVNPENTVFVLIAGTSEVSTVPGITSAGATPELTRLTPAIDSEIIGEGKCLSSKDPPMTPEGIPTPAIVTKAILSLTNIRYIIVNGGFYAKPKTPFIETGLKPSNNPAVKTAIEDLDAAIHAGEHIGRLLDGVFENIILAESVPGGTTTAYAVLKAIGINAKTSSSMKEDPFSIKEKIAEMSFRRKLEKSPLGAVKEYGDNMMAVSLGISSSVKRSKIIFGGGTQMATVMYLDRLINGMRDRYISTTGWVYYHRTELFSDLGLSDYLAVSAMDFSGMKHPGLRYYQYGHVREGTGMGAAFLLARLMNFEAEAIYKSVDDFYEQFI”, the “soluble on expression in E. coli” value was “not soluble”.

Reference: the DeepSol protein solubility set
